Measured values from article PMC12117459.

Legend:
Assay in all cases: NMR
[1] = system: Lys12; conditions: 25 °C; <60 mM (no added salt; only HCl/NaOH used for pH adjustment); none (water without buffer); folded dimer, free protein, about 1.5 mM
[2] = system: Lys30; conditions: 25 °C; <60 mM (no added salt; only HCl/NaOH used for pH adjustment); none (water without buffer); folded dimer, free protein, about 1.5 mM
[3] = system: Lys32; conditions: 25 °C; <60 mM (no added salt; only HCl/NaOH used for pH adjustment); none (water without buffer); folded dimer, free protein, about 1.5 mM
[4] = system: Lys45; conditions: 25 °C; <60 mM (no added salt; only HCl/NaOH used for pH adjustment); none (water without buffer); folded dimer, free protein, about 1.5 mM
[5] = system: Lys53; conditions: 25 °C; <60 mM (no added salt; only HCl/NaOH used for pH adjustment); none (water without buffer); folded dimer, free protein, about 1.5 mM
[6] = system: Lys55; conditions: 25 °C; <60 mM (no added salt; only HCl/NaOH used for pH adjustment); none (water without buffer); folded dimer, free protein, about 1.5 mM
[7] = system: Lys56; conditions: 25 °C; <60 mM (no added salt; only HCl/NaOH used for pH adjustment); none (water without buffer); folded dimer, free protein, about 1.5 mM
[8] = system: Lys6; conditions: 25 °C; <60 mM (no added salt; only HCl/NaOH used for pH adjustment); none (water without buffer); folded dimer, free protein, about 1.5 mM
[9] = system: Tyr16; conditions: 25 °C; <60 mM (no added salt; only HCl/NaOH used for pH adjustment); none (water without buffer); folded dimer, free protein, about 1.5 mM
[10] = system: Tyr47; conditions: folded dimer
[11] = system: Tyr5; conditions: 25 °C; <60 mM (no added salt; only HCl/NaOH used for pH adjustment); none (water without buffer); folded dimer, free protein, about 1.5 mM
[12] = target: His31 (UniProt position 31, TIGIGHLLTKS); conditions: cited from earlier work

Row | Substance | pKa [1] | pKa [2] | pKa [3] | pKa [4] | pKa [5] | pKa [6] | pKa [7] | pKa [8] | pKa [9] | pKa ([10]; 25 °C, <60 mM (no added salt; only HCl/NaOH used for pH adjustment), none (water without buffer), free protein, about 1.5 mM) | pKa ([10]; cited from earlier work) | pKa [11] | pKa [12]
1 | Ribbon-helix-helix (rhh) protein ORF56 from plasmid pRN1 (Sulfolobus islandicus (plasmid pRN1)) | 10.54 ± 0.01 | 10.86 ± 0.01 | 10.48 ± 0.01 | 11.27 ± 0.02 | 10.25 ± 0.02 | 11.08 ± 0.04 | 10.96 ± 0.03 | 10.79 ± 0.01 | 9.85 ± 0.01 | >13.7 | above pH 13 | 9.85 ± 0.01 | –
2 | T4 lysozyme (Enterobacteria phage T4 (Tequatrovirus T4)) | – | – | – | – | – | – | – | – | – | – | – | – | 9
